B1: DNA damage checkpoint control protein RAD17 (Saccharomyces cerevisiae), P48581 (parent)
chain: MRINSELANKFSASTVHLEHITTALSCLTPFGSKDDVLIFIDADGLSFVRENNHVIKIQLLLSRELFMSYSYRNETEDHMKLCVKINHILDSVSVMNRNSDDIVECTLSYDGHGSPFVLIFEDSFISERVEYSTYLIKDFDTNGLELDRERISFEAIIKGEALHSALKDLKEIGCKECYVYAKTEANDENVFALISKSQLGFSKIKLPSNRSILEKLQVFDGDSTTVIDGFAVIGFFDFTSFDKIRKSTKIASKVLFRMDVHGVLSVNILSQTDDVIITDTTRPSNNRPGSIRQLQLPKDYPGIVIEVCMLEKESIDEAAQTEIELLMETNELGNRNSFKKSTIRKRYGTDKGNETSNDNLLQLNGKKIKLPSEEENNKNRESEDEENHCKYPTKDIPIFF
partner: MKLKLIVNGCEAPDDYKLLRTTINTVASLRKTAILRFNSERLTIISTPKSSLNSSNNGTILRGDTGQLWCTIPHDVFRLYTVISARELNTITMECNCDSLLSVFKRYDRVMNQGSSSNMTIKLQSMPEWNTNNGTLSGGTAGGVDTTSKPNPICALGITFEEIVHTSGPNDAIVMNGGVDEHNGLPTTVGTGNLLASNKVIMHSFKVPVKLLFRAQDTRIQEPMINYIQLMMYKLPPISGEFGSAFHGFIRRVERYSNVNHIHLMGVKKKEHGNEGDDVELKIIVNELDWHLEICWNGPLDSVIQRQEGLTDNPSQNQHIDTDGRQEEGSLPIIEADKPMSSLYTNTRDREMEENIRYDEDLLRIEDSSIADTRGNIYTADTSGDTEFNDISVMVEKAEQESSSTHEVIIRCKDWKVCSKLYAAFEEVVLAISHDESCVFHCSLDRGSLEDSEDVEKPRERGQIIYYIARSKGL

Variants of: B1
Conditions: with mec3_yeast MEC3, Q02574

Row | effect of a mutation on the interaction | Variant
1 | decreasing interaction | E128K
